Columns and labels:
[1] = biological target: T1, Cy5-labeled PCNA (human PCNA site-specifically labeled with Cy5 at amino acid residue 107) (human, UniProt P12004 1-261, Cy5 at amino acid residue 107); experiment: FRET or BRET; competitive inhibition: pre-assembled Cy3-Pol η•Cy5-PCNA complex (200 nM Cy3-Pol η, 20 nM Cy5-PCNA) titrated with unlabeled competitor (PCNA, (Ub)3-PCNA or pol η, 0-5 μM); dose-response model, Ki from IC50 by the Munson-Rodbard solution; room temperature; replication assay buffer, ionic strength 200 mM; conditions: both partners purified
T1 sequence (P12004 whole entry N107C): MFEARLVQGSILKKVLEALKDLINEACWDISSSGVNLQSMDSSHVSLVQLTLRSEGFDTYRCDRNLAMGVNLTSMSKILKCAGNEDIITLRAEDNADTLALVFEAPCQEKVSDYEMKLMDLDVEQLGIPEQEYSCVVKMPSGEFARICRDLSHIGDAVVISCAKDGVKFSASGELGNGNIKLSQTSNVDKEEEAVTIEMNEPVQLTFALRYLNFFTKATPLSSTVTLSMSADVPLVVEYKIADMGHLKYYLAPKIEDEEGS

[2] = biological target: T1, Cy5-labeled PCNA (human PCNA …); experiment: FRET or BRET; holoenzyme assembly: RFC (100 nM), Cy5-PCNA (100 nM) and forked Cy3-P/T DNA (100 nM, biotin/Neutravidin) pre-incubated with 1 mM ATP, titrated with unlabeled pol η; FRET between DNA and PCNA (I670/I570); one-site binding model; room temperature; ionic strength 200 mM; conditions: both partners purified

B1: Pol η (human DNA polymerase eta, full length, wild type, unlabeled) (enzyme, UniProt Q9Y253 1-713, looked up)
chain: MATGQDRVVALVDMDCFFVQVEQRQNPHLRNKPCAVVQYKSWKGGGIIAVSYEARAFGVTRSMWADDAKKLCPDLLLAQVRESRGKANLTKYREASVEVMEIMSRFAVIERASIDEAYVDLTSAVQERLQKLQGQPISADLLPSTYIEGLPQGPTTAEETVQKEGMRKQGLFQWLDSLQIDNLTSPDLQLTVGAVIVEEMRAAIERETGFQCSAGISHNKVLAKLACGLNKPNRQTLVSHGSVPQLFSQMPIRKIRSLGGKLGASVIEILGIEYMGELTQFTESQLQSHFGEKNGSWLYAMCRGIEHDPVKPRQLPKTIGCSKNFPGKTALATREQVQWWLLQLAQELEERLTKDRNDNDRVATQLVVSIRVQGDKRLSSLRRCCALTRYDAHKMSHDAFTVIKNCNTSGIQTEWSPPLTMLFLCATKFSASAPSSSTDITSFLSSDPSSLPKVPVTSSEAKTQGSGPAVTATKKATTSLESFFQKAAERQKVKEASLSSLTAPTQAPMSNSPSKPSLPFQTSQSTGTEPFFKQKSLLLKQKQLNNSSVSSPQQNPWSNCKALPNSLPTEYPGCVPVCEGVSKLEESSKATPAEMDLAHNSQSMHASSASKSVLEVTQKATPNPSLLAAEDQVPCEKCGSLVPVWDMPEHMDYHFALELQKSFLQPHSSNPQVVSAVSHQGKRNPKSPLACTNKRPRPEGMQTLESFFKPLTH
notes: human DNA polymerase eta (pol η), single subunit; N-terminal catalytic core residues 1-475, C-terminal portion residues 476-713; also called unlabeled pol η; source: recombinant, purified from the pET21A-hPol η expression vector (modified protocol of Li et al., 2013)
[1]
  Ki: 112 ± 15.5 nM
[2]
  KD for Cy5-PCNA loaded on forked Cy3-P/T DNA (pol η holoenzyme formation): 28 ± 5.38 nM
